We go through one molecule from publication doi:10.1101/2025.04.24.648904 (bioRxiv, 2025).

The Kd is the free concentration of one partner at which half of the binding sites on the other are occupied at equilibrium, for simple one-to-one binding. Read a high Kd as lower affinity.

In this assay the target is Hsp90 (Hsp82), full length (S. cerevisiae, UniProt P02829 1-709). The assay is described as follows: AUC.
Chain of Hsp90 (Hsp82), full length (P02829 whole entry): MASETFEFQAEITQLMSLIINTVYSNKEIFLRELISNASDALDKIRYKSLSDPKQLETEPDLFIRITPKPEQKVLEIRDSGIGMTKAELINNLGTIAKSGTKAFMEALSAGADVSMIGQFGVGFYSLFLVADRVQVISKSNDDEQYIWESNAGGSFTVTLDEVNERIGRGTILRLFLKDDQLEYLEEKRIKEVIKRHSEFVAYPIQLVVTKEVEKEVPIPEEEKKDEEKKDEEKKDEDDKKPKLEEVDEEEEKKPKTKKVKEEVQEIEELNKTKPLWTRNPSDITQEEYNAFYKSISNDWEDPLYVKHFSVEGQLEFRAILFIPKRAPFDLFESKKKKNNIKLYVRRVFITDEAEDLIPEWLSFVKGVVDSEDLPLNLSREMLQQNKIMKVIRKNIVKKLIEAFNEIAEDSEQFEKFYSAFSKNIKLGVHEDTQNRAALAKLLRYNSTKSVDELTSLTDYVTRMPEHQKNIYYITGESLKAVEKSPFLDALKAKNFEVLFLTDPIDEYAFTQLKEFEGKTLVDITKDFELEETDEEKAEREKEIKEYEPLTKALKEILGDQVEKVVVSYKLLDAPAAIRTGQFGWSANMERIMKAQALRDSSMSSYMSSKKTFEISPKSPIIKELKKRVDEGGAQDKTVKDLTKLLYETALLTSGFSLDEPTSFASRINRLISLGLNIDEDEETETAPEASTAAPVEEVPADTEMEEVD

B1: Sgt1 (Suppressor of the G2 Allele of Skp1), full length (natural protein, S. cerevisiae, UniProt Q08446 1-395, looked up)
chain: MPVEKDLKTAYKALYDEKEPLKALHLYDEILKGSPTNLTALIFKAACLEKLYFGFSDWHSDATMENAKELLDKALMTAEGRGDRSKIGLVNFRYFVHFFNIKDYELAQSYFKKAKNLGYVDDTLPLWEDRLETKLNKKNKKQKDSTNKHTIKPVESIENRGDNNSSHSPISPLKIETAPQESPKFKIDWYQSSTSVTISLFTVNLPESKEQVNIYISPNDRRTLSISYQVPKSGSEFQYNAKLSHEVDPKAVSLKIFPKKLEITLSKIDSTQWKKLEEDILTESSRLSDEGKNSDSATRLLSAETASKERLSYPSSSKKKIDWSKLDIDEEADEEAGSADSFFQKLYAGADPDTKRAMMKSFIESNGTALSTDWEDVSKGTVKTSPPEGMEPKHW
modifications: Atto488 (maleimide) label where it is the labeled species in aUC
In turn, B1 came in with a Kd of 510 nM.
